The target of the first test is recombinant hPD-L1 hIgG1 Fc-fusion protein (R&D Systems) (human) (UniProt Q9NZQ7). The experiment in a line: flow cytometry, control HEK 293 cells, one dose of hPD-L1 Fc fusion.
Sequence of UniProt Q9NZQ7 (Q9NZQ7 19-239 limits assumed): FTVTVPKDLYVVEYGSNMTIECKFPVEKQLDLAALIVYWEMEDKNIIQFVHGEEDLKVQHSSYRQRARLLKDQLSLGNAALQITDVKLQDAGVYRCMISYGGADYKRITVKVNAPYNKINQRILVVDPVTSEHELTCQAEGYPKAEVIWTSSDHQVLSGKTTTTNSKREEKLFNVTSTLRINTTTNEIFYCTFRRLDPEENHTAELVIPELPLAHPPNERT
For Control (row of Table 2), the average binding normalized to wild type (AVE-hPD-L1) (relative to wild type) worked out at 0.0144.

The next test has as its target recombinant hPD-L2 hIgG1 Fc-fusion protein (R&D Systems) (human) (UniProt Q9BQ51). The experiment in a line: flow cytometry, control HEK 293 cells, one dose of hPD-L2 Fc fusion.
Sequence of UniProt Q9BQ51 (Q9BQ51 20-219 limits assumed): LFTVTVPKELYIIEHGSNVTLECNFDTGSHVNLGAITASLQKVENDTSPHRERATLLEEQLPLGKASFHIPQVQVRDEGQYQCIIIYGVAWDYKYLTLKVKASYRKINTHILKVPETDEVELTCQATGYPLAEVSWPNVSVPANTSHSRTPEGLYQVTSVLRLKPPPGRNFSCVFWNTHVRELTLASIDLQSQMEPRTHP
Regarding Control (row of Table 2), the average binding normalized to wild type (AVE-hPD-L2) (relative to wild type) was found to be 0.00648.

For the next test the target is unchanged. The experiment in a line: flow cytometry, HEK 293 cells displaying the PD-1 construct, one dose of hPD-L2 Fc fusion, percent of PD-1-positive cells bound.
Take “human PD-1 mutant D77E (hPD-1 Type I mCherry, on HEK 293 cells) (from UniProt Q15116 25-168) (receptor)”: the average binding normalized to wild type (AVE-hPD-L2) (relative to wild type) was determined as 1.13.

Regarding “human PD-1 mutant E84Y (hPD-1 Type I mCherry, on HEK 293 cells) (from UniProt Q15116 25-168) (receptor)”, the average binding normalized to wild type (AVE-hPD-L2) (relative to wild type) is 0.999. Same read-out and setting: as for “human PD-1 mutant E136N (hPD-1 Type I mCherry, on HEK 293 cells) (from UniProt Q15116 25-168) (receptor)”, the figure is 0.82; as for “human PD-1 mutant E136Q (hPD-1 Type I mCherry, on HEK 293 cells) (from UniProt Q15116 25-168) (receptor)”, 0.967. The same measure, in the same setting: as for “human PD-1 mutant G124M (hPD-1 Type I mCherry, on HEK 293 cells) (from UniProt Q15116 25-168) (receptor)”, the figure is 0.705. On the same count and under the same terms, with “human PD-1 mutant G124V (hPD-1 Type I mCherry, on HEK 293 cells) (from UniProt Q15116 25-168) (receptor)” the figure was 1.16; with “human PD-1 mutant G124Y (hPD-1 Type I mCherry, on HEK 293 cells) (from UniProt Q15116 25-168) (receptor)”, 0.557. Regarding “human PD-1 mutant I126V (hPD-1 Type I mCherry, on HEK 293 cells) (from UniProt Q15116 25-168) (receptor)”, the average binding normalized to wild type (AVE-hPD-L2) (relative to wild type) was 0.711. On to “human PD-1 mutant I134D (hPD-1 Type I mCherry, on HEK 293 cells) (from UniProt Q15116 25-168) (receptor)”, for which the average binding normalized to wild type (AVE-hPD-L2) (relative to wild type) came out at 0.0105. For “human PD-1 mutant I134F (hPD-1 Type I mCherry, on HEK 293 cells) (from UniProt Q15116 25-168) (receptor)”, the average binding normalized to wild type (AVE-hPD-L2) (relative to wild type) came out at 1.11. For “human PD-1 mutant I134N (hPD-1 Type I mCherry, on HEK 293 cells) (from UniProt Q15116 25-168) (receptor)”, the average binding normalized to wild type (AVE-hPD-L2) (relative to wild type) is 0.0534. On the same count and under the same terms, as for “human PD-1 mutant I134Q (hPD-1 Type I mCherry, on HEK 293 cells) (from UniProt Q15116 25-168) (receptor)”, the figure is 0.0252. As to “human PD-1 mutant I134T (hPD-1 Type I mCherry, on HEK 293 cells) (from UniProt Q15116 25-168) (receptor)”, the average binding normalized to wild type (AVE-hPD-L2) (relative to wild type) came out at 0.307. The same measure, in the same setting: as for “human PD-1 mutant K78R (hPD-1 Type I mCherry, on HEK 293 cells) (from UniProt Q15116 25-168) (receptor)”, the figure is 0.125; as for “human PD-1 mutant K131H (hPD-1 Type I mCherry, on HEK 293 cells) (from UniProt Q15116 25-168) (receptor)”, 1.58. Same read-out and setting: with “human PD-1 mutant L128V (hPD-1 Type I mCherry, on HEK 293 cells) (from UniProt Q15116 25-168) (receptor)” the figure was 1.03; with “human PD-1 mutant L128W (hPD-1 Type I mCherry, on HEK 293 cells) (from UniProt Q15116 25-168) (receptor)”, 1.03. On the same count and under the same terms, with “human PD-1 mutant N66E (hPD-1 Type I mCherry, on HEK 293 cells) (from UniProt Q15116 25-168) (receptor)” the figure was 0.00438.

Regarding “human PD-1 mutant N66Q (hPD-1 Type I mCherry, on HEK 293 cells) (from UniProt Q15116 25-168) (receptor)”, the average binding normalized to wild type (AVE-hPD-L2) (relative to wild type) came to 0.0105. As to “human PD-1 mutant Q75N (hPD-1 Type I mCherry, on HEK 293 cells) (from UniProt Q15116 25-168) (receptor)”, the average binding normalized to wild type (AVE-hPD-L2) (relative to wild type) was 1.13. Consider “human PD-1 mutant S73K (hPD-1 Type I mCherry, on HEK 293 cells) (from UniProt Q15116 25-168) (receptor)”, for which the average binding normalized to wild type (AVE-hPD-L2) (relative to wild type) worked out at 1. In the case of “human PD-1 mutant S73R (hPD-1 Type I mCherry, on HEK 293 cells) (from UniProt Q15116 25-168) (receptor)”, the average binding normalized to wild type (AVE-hPD-L2) (relative to wild type) is 1.11.

In the case of “human PD-1 mutant T76D (hPD-1 Type I mCherry, on HEK 293 cells) (from UniProt Q15116 25-168) (receptor)”, the average binding normalized to wild type (AVE-hPD-L2) (relative to wild type) stood at 0.205. As to “human PD-1 mutant T76E (hPD-1 Type I mCherry, on HEK 293 cells) (from UniProt Q15116 25-168) (receptor)”, the average binding normalized to wild type (AVE-hPD-L2) (relative to wild type) was found to be 0.642. For “human PD-1 mutant T76N (hPD-1 Type I mCherry, on HEK 293 cells) (from UniProt Q15116 25-168) (receptor)”, the average binding normalized to wild type (AVE-hPD-L2) (relative to wild type) is 0.998.

With “human PD-1 mutant T76Q (hPD-1 Type I mCherry, on HEK 293 cells) (from UniProt Q15116 25-168) (receptor)”, the average binding normalized to wild type (AVE-hPD-L2) (relative to wild type) stood at 0.98. The same measure, in the same setting: with “human PD-1 mutant T76S (hPD-1 Type I mCherry, on HEK 293 cells) (from UniProt Q15116 25-168) (receptor)” the figure was 0.954; with “human PD-1 mutant T76Y (hPD-1 Type I mCherry, on HEK 293 cells) (from UniProt Q15116 25-168) (receptor)”, 1.11. Turning to “human PD-1 mutant Y68K (hPD-1 Type I mCherry, on HEK 293 cells) (from UniProt Q15116 25-168) (receptor)”, the average binding normalized to wild type (AVE-hPD-L2) (relative to wild type) was 0.0223. Still for that read-out and setting: as for “human PD-1 mutant Y68N (hPD-1 Type I mCherry, on HEK 293 cells) (from UniProt Q15116 25-168) (receptor)”, the figure is 0.108; as for “human PD-1 mutant Y68Q (hPD-1 Type I mCherry, on HEK 293 cells) (from UniProt Q15116 25-168) (receptor)”, 0.202; as for “human PD-1 mutant Y68R (hPD-1 Type I mCherry, on HEK 293 cells) (from UniProt Q15116 25-168) (receptor)”, 0.0334.

(Values after US20220047729A1.)
